From PMC12259267, “Disruption of the KLHL37–N-Myc complex restores N-Myc degradation and arrests neuroblastoma growth in mouse models” (The Journal of Clinical Investigation, 2025)

Assays:
Conditions in all cases: both partners purified
[1] = target: T1, recombinant KLHL37-His protein (UniProt O14682 1-589); assay: pull-down; in vitro co-IP: recombinant KLHL37-His incubated with GST fusion protein at RT (25°C) for 3 hours, then GST resin (preblocked with 1% BSA); IP: GST, IB: KLHL37
T1 construct: Kelch-like protein 37 (KLHL37), also known as ectodermal-neural cortex 1 (ENC1); also called rKLHL37-His; KLHL37-His (6x); source: E. coli BL21, purified (HisTrap HP)
T1 sequence (looked up): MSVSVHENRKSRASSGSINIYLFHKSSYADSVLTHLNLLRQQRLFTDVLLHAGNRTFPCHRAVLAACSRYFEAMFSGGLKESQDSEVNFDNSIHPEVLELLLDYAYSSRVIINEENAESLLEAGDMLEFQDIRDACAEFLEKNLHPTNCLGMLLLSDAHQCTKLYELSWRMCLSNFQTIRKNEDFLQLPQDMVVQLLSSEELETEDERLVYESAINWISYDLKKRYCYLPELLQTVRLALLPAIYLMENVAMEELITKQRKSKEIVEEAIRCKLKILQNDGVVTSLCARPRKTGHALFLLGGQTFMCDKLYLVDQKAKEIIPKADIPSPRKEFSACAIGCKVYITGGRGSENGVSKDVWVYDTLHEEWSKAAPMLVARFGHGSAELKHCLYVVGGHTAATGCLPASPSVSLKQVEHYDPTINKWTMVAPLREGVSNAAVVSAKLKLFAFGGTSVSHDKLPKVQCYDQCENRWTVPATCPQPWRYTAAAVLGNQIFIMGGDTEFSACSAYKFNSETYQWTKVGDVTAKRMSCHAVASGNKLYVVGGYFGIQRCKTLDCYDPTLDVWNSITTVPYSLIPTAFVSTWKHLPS

[2] = target: T2, KLHL37-His recombinant protein (UniProt O14682 1-589); assay: pull-down; in vitro co-IP: recombinant KLHL37-His incubated with GST or GST–N-Myc at RT (25°C) for 3 hours, then GST resin preblocked with 1% BSA
T2 construct: Kelch-like protein 37 (KLHL37, ENC1); the methods name only KLHL37-His; also called recombinant KLHL37; KLHL37-His (6×); source: E. coli BL21, purified (HisTrap HP)
T2 sequence (looked up): T1 sequence (looked up)

[3] = target: T2, KLHL37-His recombinant protein; assay: MST; GFP–N-Myc or GFP–C-Myc at 200 nM in PBS-T (0.05% Tween 20); KLHL37-His serially diluted 16 times from 27.3 nM (N-Myc) or 7 μM (C-Myc); mixed 1:1; EC50 fitted

B1: recombinant GST-N-Myc protein (natural protein, UniProt P04198 1-464, looked up)
chain: MPSCSTSTMPGMICKNPDLEFDSLQPCFYPDEDDFYFGGPDSTPPGEDIWKKFELLPTPPLSPSRGFAEHSSEPPSWVTEMLLENELWGSPAEEDAFGLGGLGGLTPNPVILQDCMWSGFSAREKLERAVSEKLQHGRGPPTAGSTAQSPGAGAASPAGRGHGGAAGAGRAGAALPAELAHPAAECVDPAVVFPFPVNKREPAPVPAAPASAPAAGPAVASGAGIAAPAGAPGVAPPRPGGRQTSGGDHKALSTSGEDTLSDSDDEDDEEEDEEEEIDVVTVEKRRSSSNTKAVTTFTITVRPKNAALGPGRAQSSELILKRCLPIHQQHNYAAPSPYVESEDAPPQKKIKSEASPRPLKSVIPPKAKSLSPRNSDSEDSERRRNHNILERQRRNDLRSSFLTLRDHVPELVKNEKAAKVVILKKATEYVHSLQAEEHQLLLEKEKLQARQQQLLKKIEHARTC
notes: N-Myc; also called rGST-N-Myc; source: SF9 insect cells (baculovirus), purified (GST TRAP HP); not shown: GST, N-terminal, kept
- binding result [1]: binds

B2: GST–N-Myc recombinant protein (natural protein, UniProt P04198 1-464, looked up)
chain: B1 chain
notes: N-Myc; source: SF9 insect cells (baculovirus), purified (GST TRAP HP); not shown: GST, N-terminal, kept
- binding result [2]: binds

B3: recombinant GFP–N-Myc (natural protein, UniProt P04198 1-464, looked up)
chain: B1 chain
notes: N-Myc; also called rGFP–N-Myc; source: E. coli BL21
- binding result [3]: binds
